We go through two substances from PMC3561395.

“And” between values parts separate entries of the source, which are not always exact repeats. Equal entries are not always repeated.

The assay has as its target cytochrome c 552 from Thermus thermophilus HB8 (Thermus thermophilus HB8) (UniProt P04164).
UniProt P04164, sequence (P04164 whole entry): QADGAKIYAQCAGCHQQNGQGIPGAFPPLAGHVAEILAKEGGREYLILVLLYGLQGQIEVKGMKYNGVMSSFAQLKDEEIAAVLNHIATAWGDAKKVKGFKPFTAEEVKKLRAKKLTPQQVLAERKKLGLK

The substance “recombinant cytochrome c 550 N-terminal domain (c 550[N]) (domain or fragment)” yielded a forward rate constant kF of electron transfer with c 552, 4°C, ionic strength 12 mM of 1e+08 M⁻¹ s⁻¹. “recombinant cytochrome c 550 C-terminal domain (c 550[C]) (domain or fragment)”: the forward rate constant kF of electron transfer with c 552, 4°C, ionic strength 12 mM was found to be 7e+07 M⁻¹ s⁻¹; the reverse rate constant kR of electron transfer with c 552, 4°C, ionic strength 12 mM was 7e+06 M⁻¹ s⁻¹ and 3e+06 M⁻¹ s⁻¹.
